Patent publication US20180292412A1 (JULIUS MAXIMILIANS UNIVERSIT T W RZBURG, published 2018)
Substitutions are numbered along the chain they refer to.

Key:
[1] = target: T1, recombinant mature human GDF-15 protein derived from expression in E. coli (human, UniProt Q99988 195-308); experiment: SPR (Biorad ProteOn XPR36), GDF-15 from E. coli immobilised, antibody as analyte
T1 construct: mature; also called GDF-15 derived from E. coli expression
T1 sequence (looked up): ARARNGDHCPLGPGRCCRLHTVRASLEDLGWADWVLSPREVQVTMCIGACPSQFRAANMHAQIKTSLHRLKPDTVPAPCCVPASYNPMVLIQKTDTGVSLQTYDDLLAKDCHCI
Description: The GLC sensor chip was activated using Sulfo-NHS (N-Hydroxysulfosuccinimide) and EDC (1-Ethyl-3-[3-dimethylaminopropyl]carbodiimide hydrochloride) (Biorad ProteOn Amine Coupling Kit) according to the manufacturer's recommendation, the sensor surface was subsequently loaded with the proteins up to a density of about 600 RU (1 Ru=1 pg mm⁻²). The non-reacted coupling groups were then quenched by perfusion with 1M ethanolamine pH 8.5 and the biosensor was equilibrated by perfusing the chip with running buffer ([…], 150 mM NaCl, 3.4 mM EDTA, 0.005% Tween-20, pH 7.4, referred to as HBS150). As controls two flow cells were used, one empty with no protein coupled and one coupled with an non-physiological protein partner (human Interleukin-5), which was immobilized using the same coupling chemistry and the same coupling density. For interaction measurements anti-human GDF-15 mAb-B1-23 was dissolved in HBS150 and used in six different concentrations as analyte (concentration: 0.4, 0.8, 3, 12, 49 und 98 nM). […] The resulting sensogram was analyzed using the software ProteOn Manager version 3.0. […] For the association rate constant a value of 5.4±0.06×10⁵ M⁻¹s⁻¹ (kₒₙ) and for the dissociation rate constant a value of 4.3±0.03×10⁻⁴ s⁻¹ (koff) could be determined (values are for the interaction of anti-human GDF-15 mAb-B1-23 with GDF-15 derived from insect cell expression).

[2] = target: T2, recombinant mature human GDF-15 protein (as expressed in Baculovirus-transfected HighFive insect cells) (human, UniProt Q99988 197-308); experiment: SPR (Biorad ProteOn XPR36, GLC chip), GDF-15 from insect cells immobilised, antibody as analyte, 25° C., 1:1 Langmuir model
T2 construct: Immobilised by amine coupling on the SPR chip; also called recombinant human GDF-15; GDF-15 derived from insect cell expression
T2 sequence: T1 sequence (looked up) with A1G, R2S
Description: (§1) For preparing the biosensors recombinant mature human GDF-15 protein was immobilized on flow cells 1 and 2. On one flow cell recombinant GDF-15 derived from Baculvirus-transfected insect cells (HighFive insect cells) and on the other recombinant protein derived from expression in E. coli was used. The GLC sensor chip was activated using Sulfo-NHS (N-Hydroxysulfosuccinimide) and EDC (1-Ethyl-3-[3-dimethylaminopropyl]carbodiimide hydrochloride) (Biorad ProteOn Amine Coupling Kit) according to the manufacturer's recommendation, the sensor surface was subsequently loaded with the proteins up to a density of about 600 RU (1 Ru=1 pg mm⁻²). The non-reacted coupling groups were then quenched by perfusion with 1M ethanolamine pH 8.5 and the biosensor was equilibrated by perfusing the chip with running buffer ([…], 150 mM NaCl, 3.4 mM EDTA, 0.005% Tween-20, pH 7.4, referred to as HBS150). […] The resulting sensogram was analyzed using the software ProteOn Manager version 3.0. […] For the association rate constant a value of 5.4±0.06×10⁵ M⁻¹s⁻¹ (kₒₙ) and for the dissociation rate constant a value of 4.3±0.03×10⁻⁴ s⁻¹ (koff) could be determined (values are for the interaction of anti-human GDF-15 mAb-B1-23 with GDF-15 derived from insect cell expression).

[3] = target: T2, recombinant mature human GDF-15 protein …; experiment: SPR (Biorad ProteOn XPR36), calculated as koff/kon
Description: as §1

B1: monoclonal anti-human GDF-15 mAb-B1-23 (antibody, IgG2a, V domains shown, not shown: a dimerising Fc or GST)
VH: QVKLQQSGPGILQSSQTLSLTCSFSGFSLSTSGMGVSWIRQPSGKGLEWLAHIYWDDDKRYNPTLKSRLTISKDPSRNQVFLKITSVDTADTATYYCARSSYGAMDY
VL: DIVLTQSPKFMSTSVGDRVSVTCKASQNVGTNVAWFLQKPGQSPKALIYSASYRYSGVPDRFTGSGSGTDFTLTISNVQSEDLAEYFCQQYNNFPYT
notes: Mouse hybridoma antibody (DSM ACC3142), IgG2a, kappa chain; FR4 and the constant regions are missing; also called antibody B1-23; monoclonal mouse antibody GDF-15
fold difference of affinity against GDF-15 derived from insect cells [1]: < 2 fold
koff [2]: 0.00043 s⁻¹
kon [2]: 540000 M⁻¹ s⁻¹
Kd [3]: ~0.79 nM
